B1: Zinc finger HIT domain-containing protein 1 (Homo sapiens), O43257 (parent)
chain: MVEKKTSVRSQDPGQRRVLDRAARQRRINRQLEALENDNFQDDPHAGLPQLGKRLPQFDDDADTGKKKKKTRGDHFKLRFRKNFQALLEEQNLSVAEGPNYLTACAGPPSRPQRPFCAVCGFPSPYTCVSCGARYCTVRCLGTHQETRCLKWTV

Variants of: B1
Conditions: with arp6_human ACTR6, Q9GZN1
Sequence of arp6_human ACTR6, Q9GZN1 (Q9GZN1 whole entry): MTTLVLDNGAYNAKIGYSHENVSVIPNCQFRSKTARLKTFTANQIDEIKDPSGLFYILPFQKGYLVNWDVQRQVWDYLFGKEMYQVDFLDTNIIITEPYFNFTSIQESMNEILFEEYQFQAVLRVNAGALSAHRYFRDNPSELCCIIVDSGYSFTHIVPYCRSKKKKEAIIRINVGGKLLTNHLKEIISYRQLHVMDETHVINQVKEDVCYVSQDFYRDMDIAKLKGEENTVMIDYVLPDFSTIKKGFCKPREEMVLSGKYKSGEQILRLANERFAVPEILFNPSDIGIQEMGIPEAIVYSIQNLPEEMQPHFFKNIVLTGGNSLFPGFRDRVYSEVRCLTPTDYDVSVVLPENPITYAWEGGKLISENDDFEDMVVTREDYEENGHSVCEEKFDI

effect of a mutation on the interaction | Variant
disrupting interaction | T71A
disrupting interaction | T64A
disrupting interaction | T103A
disrupting interaction | T6A

— IntAct's records for PubMed 20473270
